Test results: patent US20220002363A1, “COMPOSITIONS AND METHODS FOR TREATING PULMONARY DISEASE” (United States Government As Represented By The Department …, priority 2020, published 2022)

Tests used:
Jurkat cells = experiment: Caspase 3/7 activity in Jurkat cells (bioactivity of sFasL proteins); assay type: cell-based, human
Description: Jurkat cells were incubated for 5 hours with wild type (WT) sFasL or a sFasL mutant (mut sFasL) in which 8 charged amino acids were changed to alanine. Caspase 3/7 activity was measured after incubation with the caspase 3/7 substrate at room temperature for 30 minutes. Data is shown as arbitrary luminescence units. […] Each dot represents individual data. Data analyzed by 2-way ANOVA with Sidak post-hoc analysis. ** p<0.01, *** p<0.001 compared to the respective concentration of mut-sFasL.
Methods. Cells and cell culture. To test Fas responses in vitro, the highly-Fas sensitive cell line, Jurak, was used. Jurak cells are human T lymphocyte cells first isolated from the peripheral blood of a child with acute cell leukemia (Gillis S and Watson J. J Exp Med. 1980; 152(6):1709-19). Jurak cells are exquisitely sensitive to Fas ligation and are commonly used as a model cell in studies involving the Fas/FasL system; here they are used as such, rather than as a model of T-cell responses. Jurak cells (human leukemic T lymphocytes) were purchased from ATCC (Clone TIB-152) and grown at 37° C. and 5% CO2 in RPMI-1640 medium supplemented with 10% heat-inactivated fetal bovine serum. Cells were authenticated using short tandem repeat analysis. Mycoplasma status was weakly positive by PCR (Venor GeM Mycoplasma Detection Kit, Sigma-Aldrich, Cat #MP0025). The Jurak data was confirmed in primary human lung epithelial cells and the murine alveolar epithelial cell line LA4, which are described herein.
Measurements of apoptotic cascade activation. Apoptotic cascade activation was assessed by determining caspase 3/7 activity and Annexin V externalization. Caspase-3/7 activity was measured using a commercial substrate (Caspase-Glo 3/7 Assay, Promega, Madison, Wis., Cat #G8090) following manufacturer's instructions. Annexin V was measured with a luminescent commercial assay that allows for measurement of annexin V externalization in adherent cells (RealTime-Glo Annexin V assay, Promega, Madison, Wis., Cat #JA1011). Luminescence was measured with a Synergy H4 Microplate Reader (BioTek, Winooski, Vt.).
Results. Mutations of the charged amino acids in the stalk region of sFasL influence its biological activity in vitro. To test whether the structure of the stalk region of sFasL influences its biological activity, a mutant sFasL molecule (mut-sFasL) was cloned in which 8 charged amino acids in the 26 amino acid stalk region were changed to the non-charged amino acid alanine (FIG. 7). DNA sequencing data for the FasL constructs was also carried out: DNA sequence of wild type sFasL construct and eight different clones. The mutant sFasL clone used in the study is clone 1. […]

[1] = biological target: T1, recombinant human soluble Fas (Homo sapiens, UniProt P25445); experiment: Fas-FasL binding assay on wells coated with recombinant human soluble Fas; details: recombinant human Fas 5 μg/mL, detection with polyclonal anti-FasL antibodies
T1 construct: recombinant human soluble Fas receptors (PeproTech, Rocky Hill, N.J.); purchased PeproTech
T1 sequence (P25445 26-173 limits assumed): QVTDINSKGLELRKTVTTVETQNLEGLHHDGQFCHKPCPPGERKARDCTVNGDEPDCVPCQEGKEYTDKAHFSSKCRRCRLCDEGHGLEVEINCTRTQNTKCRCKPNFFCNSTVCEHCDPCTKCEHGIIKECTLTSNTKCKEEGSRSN
Description: The mixtures were incubated for 2 hours in 96-well plates pre-coated with recombinant hsFas (250 ng/ml). After washing unbound material, biotin was detected using HRP conjugated Streptavidin. […] The sFasL bound to Fas was detected using polyclonal anti-human FasL antibodies. […] Different molar ratios of the Fas-activating antibody CH-11 and mut-sFasL were added, and caspase 3/7 activity measured after 5 hours. […] Data represent the results from three separate experiments, each done in duplicate, and were analyzed by 2-way ANOVA with Sidak's post hoc analysis. […] Each dot represents individual data; lines represent means±SD. *=P<0.05; **=P<0.01, ***P<0.001.
Antibodies and Reagents. […] FLAG tagged mut-sFasL was detected using HRP anti-FLAG monoclonal antibody (Sigma-Aldrich, Cat #A85920). […]
WT-sFasL inhibition occurs prior to receptor binding. […] Recombinant human Fas at 250 ng/mL were coated and the binding of a fixed concentration of biotinylated WT-sFasL (70 ng/mL) were measured in the presence of serial 3-fold dilutions of either WT-sFasL or mut-sFasL. […] Serial dilutions of either WT-sFasL or mut-sFasL were incubated in wells coated with recombinant human Fas, 5 μg/mL, and after washing, detected sFasL bound to Fas using polyclonal anti-FasL antibodies. […]

B1: mut-sFasL: mutant sFasL molecule in which 8 charged amino acids in the 26 amino acid stalk region were changed to alanine (protein)
chain: QLFALQAALAALAASTSQMATASSLAKQIGHPSPPPEKKELRKVAHLTGKSNSRSMPLEWEDTYGIVLLSGVKYKKGGLVINETGLYFVYSKVYFRGQSCNNLPLSHKVYMRNSKYPQDLVMMEGKMMSYCTTGQMWARSSYLGAVFNLTSADHLYVNVSELSLVNFEESQTFFGLYKL
bioactivity (caspase 3/7) at the highest concentration tested (Jurkat cells; 810 ng/mL): retained some bioactivity | caspase 3/7 activity (Jurkat cells; 5 hours incubation, compared to WT-sFasL): significantly reduced caspase 3/7 activity compared to WT-sFasL | activity relative to the wild-type sFasL (Jurkat cells; caspase 3/7): approximately two orders of magnitude less than the wild-type sFasL | intrinsic caspase-3/7 activation (Jurkat cells; highest dose of 2430 ng/mL (corresponds to 1:81 WT:mut molar ratio)): leads to intrinsic caspase-3/7 activation | binding curve to immobilized Fas relative to WT-sFasL [1]: shifted to the right, indicating decreased binding ability for Fas | binding curve to immobilized Fas relative to WT-sFasL ([1]; listed as mut sFasL): shifted to the left
